Reference: US20250320292A1

Molecular target: COL4A3 (immobilised as Fc-rat COL4A3 or COL4A3-His)
Assay: BLI (Octet RED96); COL4A3 immobilised (Fc-rat COL4A3 on anti-human Fc or COL4A3-His on HIS1K, not said which), test article titrated from 50 nM

B1: CDAB14 (scFv)
chain: DCGPPPDIPNARPILGRHSKFAEQSKVAYSCNNGFKQVPDKSNIVVCLENGQWSSHETFCEKSCVAPERLSFASLKKEYLNMNFFPVGTIVEYECRPGFRKQPPLPGKATCLEDLVWSPVAQFCKKKSCPNPKDLDNGHINIPTGILFGSEINFSCNPGYRLVGVSSTFCSVTGNTVDWDDEFPVCTEIHCPEPPKINNGIMRGESDSYTYSQVVTYSCDKGFILVGNASIYCTVSKSDVGQWSSPPPRCIEKSKVPTKKPTINVPSTGTPSTPQKPTTESVPNPGDQPTPQKPSTVKVSATQHVPVTKTTVRHPIRTSTDKGEPNTGGGGGSGGGGSGGGGSGGGGSQVQLLESGPGLVKPSGTLSLTCTVSGGSISSTNWWTWVRQSPGTGLEWIGHIYHSGSTDYNPSLKSRVTISIDKSKNQFSLKMTSVTAADTAVYYCACAAQYHWKGLDPWGHGTLVTVSSGGGGGSGGGGSGGGGSDIVMTQTPLSLSVTPGQPASISCMSSQSLLHSDGKTYLYWYLQKPGQPPQLLIYEVSNRFSGVPDRFSGSGSGTDFTLKISRVEAEDVGIYYCMQSIQLPITFGQGTRLEIKHHHHHH
  Kd: 23 µM
